# Measurements from patent US11306156.
# What was measured:
# [1] = target: tissue factor (TF) antigen (UniProt P13726); experiment: SPR (ProteOn), against wild-type D3H44 Fab
# [2] = target: tissue factor (TF) antigen (UniProt P13726); experiment: SPR (ProteOn), Fab captured by anti-penta-His, TF as analyte, 1:1 fit
# [3] = target: tissue factor (TF) antigen (UniProt P13726); experiment: SPR (ProteOn), Fab captured on anti-penta-His, TF analyte, 1:1 fit
# [4] = target: tissue factor (TF) antigen (UniProt P13726); experiment: SPR KD against wild-type D3H44 Fab (reference KD 0.157 nM)
# tissue factor (TF) antigen, sequence (P13726 33-251 limits assumed): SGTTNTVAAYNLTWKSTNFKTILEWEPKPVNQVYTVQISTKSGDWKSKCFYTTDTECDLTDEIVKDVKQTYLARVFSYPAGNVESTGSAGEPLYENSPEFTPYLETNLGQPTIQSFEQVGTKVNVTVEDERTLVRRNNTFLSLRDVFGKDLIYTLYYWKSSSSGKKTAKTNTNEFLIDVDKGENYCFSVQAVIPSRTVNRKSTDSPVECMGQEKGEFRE
Change in KD with respect to wild type (-(log(KD design) - log(KD wt))) [1],Kd [2],Kd [3],Change in KD with respect to wild type (-(log(KD design) - log(KD wt))) [4],Substance
0.46,0.06 nM,–,–,"D3H44 Fab heterodimer, H1L1 of LCCA set 9863 (H: S186K; L: Q124E_T180E)"
-0.03,0.17 nM,–,–,"D3H44 Fab heterodimer, H1L1 of LCCA set 9843 (H: S186K; L: Q124E_S131T_T178F_T180E)"
0.15,0.11 nM,–,–,"D3H44 Fab heterodimer, H1L1 of LCCA sets 9881 and 9882 (H: S186R; L: Q124E_S131T_T178F_T180E)"
0.36,0.07 nM,–,–,"D3H44 Fab heterodimer, H1L1 of LCCA set 9901 (H: S186R; L: Q124E_T180E)"
-0.25,0.28 nM,–,–,"D3H44 Fab heterodimer, H1L1 of LCCA set 9575 (H: L143D_K145T_Q179E; L: T178R)"
-0.25,0.28 nM,–,–,"D3H44 Fab heterodimer, H1L1 of LCCA set 9588 (H: L143E_K145T; L: Q124R)"
-0.28,0.3 nM,–,–,"D3H44 Fab heterodimer, H1L1 of LCCA set 9684 (H: L143E_K145T_Q179E; L: T178R)"
0.34,0.07 nM,–,–,"D3H44 Fab heterodimer, H1L1 of LCCA set 9741 (H: L143R; L: Q124E_V133E_Q160F)"
–,–,0.17 nM,-0.03,"D3H44 Fab heterodimer, H: L124A_Q179K, L: Q124E_V133W_S176T_T178E_T180E (H1L1 Fab of LCCA set 9098)"
–,–,0.14 nM,0.04,"D3H44 Fab heterodimer, H: Q179R, L: Q124E_T178E (H1L1 Fab of LCCA set 9810)"
–,–,0.15 nM,0.01,"D3H44 Fab heterodimer, H: S186K, L: Q124E_T178E (H1L1 Fab of LCCA set 9850)"
–,–,0.15 nM,0.02,"D3H44 Fab heterodimer, H: L143E_K145T_Q179E, L: Q124R_Q160K_T178R (H1L1 Fab of LCCA set 9654)"
–,–,0.07 nM,0.36,"D3H44 Fab heterodimer, H: S186R, L: Q124E_T180E (H1L1 Fab of LCCA sets 9891, 9893, 9896 and 9898)"
–,–,0.16 nM,-0.02,"D3H44 Fab heterodimer, H: L124A_L143F_Q179K, L: Q124E_V133W_S176T_T178E_T180E (H1L1 Fab of LCCA set 9092)"
–,–,0.15 nM,0.02,"D3H44 Fab heterodimer, H: S186K, L: Q124E_T178E_T180E (H1L1 Fab of LCCA set 9852)"
–,–,0.29 nM,-0.27,"D3H44 Fab heterodimer, H: Q179K, L: Q124E_Q160E_T178E (H1L1 Fab of LCCA set 9758)"
–,–,0.14 nM,0.06,"D3H44 Fab heterodimer, H: S186R, L: Q124E_T178E (H1L1 Fab of LCCA set 9888)"
–,–,0.11 nM,0.16,"D3H44 Fab heterodimer, H: Q179K, L: Q124E_T180E (H1L1 Fab of LCCA sets 9787, 9792 and 9794)"
–,–,0.05 nM,0.49,"D3H44 Fab heterodimer, H: S186R, L: Q124E_T178E_T180E (H1L1 Fab of LCCA set 9890)"
–,–,0.2 nM,-0.09,"D3H44 Fab heterodimer, H: L143R, L: Q124E_V133E (H1L1 Fab of LCCA set 9740)"
